Measured values from patent US20210115102.

Chain of ALU30-1 (chain, as listed by the source): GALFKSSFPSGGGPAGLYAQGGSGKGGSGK
Chain of ALU30-19 (chain, as listed by the source): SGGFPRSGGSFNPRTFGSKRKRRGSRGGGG
Chain of MMP-9, recombinant human (chain, as listed by the source): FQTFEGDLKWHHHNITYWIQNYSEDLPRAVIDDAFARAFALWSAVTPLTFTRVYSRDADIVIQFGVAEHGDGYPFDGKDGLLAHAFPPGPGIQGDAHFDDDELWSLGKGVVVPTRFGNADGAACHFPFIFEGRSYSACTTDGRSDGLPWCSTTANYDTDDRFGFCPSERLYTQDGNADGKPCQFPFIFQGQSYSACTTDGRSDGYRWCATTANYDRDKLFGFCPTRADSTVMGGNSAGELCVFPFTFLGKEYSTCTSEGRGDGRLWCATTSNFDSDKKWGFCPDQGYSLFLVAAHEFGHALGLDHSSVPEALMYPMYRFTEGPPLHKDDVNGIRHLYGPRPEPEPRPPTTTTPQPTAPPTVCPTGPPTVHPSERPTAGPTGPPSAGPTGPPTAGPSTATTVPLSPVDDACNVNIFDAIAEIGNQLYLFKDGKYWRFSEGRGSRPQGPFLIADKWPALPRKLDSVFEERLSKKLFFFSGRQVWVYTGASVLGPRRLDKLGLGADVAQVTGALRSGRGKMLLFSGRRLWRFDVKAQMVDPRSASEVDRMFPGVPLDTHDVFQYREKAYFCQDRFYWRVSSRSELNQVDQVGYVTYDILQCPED
Chain of ALU30-8 (chain, as listed by the source): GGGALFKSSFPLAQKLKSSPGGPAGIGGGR
Chain of ALU30-9 (chain, as listed by the source): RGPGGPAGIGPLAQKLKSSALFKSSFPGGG
Chain of ALU30-15 (chain, as listed by the source): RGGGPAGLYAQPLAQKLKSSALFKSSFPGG
Chain of Factor Xa, recombinant human (chain): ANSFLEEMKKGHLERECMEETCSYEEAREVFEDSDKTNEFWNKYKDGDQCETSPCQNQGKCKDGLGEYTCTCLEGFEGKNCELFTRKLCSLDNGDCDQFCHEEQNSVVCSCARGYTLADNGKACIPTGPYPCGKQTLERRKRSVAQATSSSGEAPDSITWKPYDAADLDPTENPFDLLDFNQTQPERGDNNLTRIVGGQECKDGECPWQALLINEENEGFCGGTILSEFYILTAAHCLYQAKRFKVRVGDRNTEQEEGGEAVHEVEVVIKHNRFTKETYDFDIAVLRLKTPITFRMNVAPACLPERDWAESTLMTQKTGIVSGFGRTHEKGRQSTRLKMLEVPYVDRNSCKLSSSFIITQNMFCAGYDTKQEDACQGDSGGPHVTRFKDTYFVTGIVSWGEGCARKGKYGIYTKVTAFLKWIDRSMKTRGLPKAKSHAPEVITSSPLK
Chain of ALU30-12 (chain, as listed by the source): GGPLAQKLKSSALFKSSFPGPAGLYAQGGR
Chain of ALU30-14 (chain, as listed by the source): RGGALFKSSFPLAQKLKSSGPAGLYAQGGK
Chain of Hepsin, recombinant human (chain, as listed by the source): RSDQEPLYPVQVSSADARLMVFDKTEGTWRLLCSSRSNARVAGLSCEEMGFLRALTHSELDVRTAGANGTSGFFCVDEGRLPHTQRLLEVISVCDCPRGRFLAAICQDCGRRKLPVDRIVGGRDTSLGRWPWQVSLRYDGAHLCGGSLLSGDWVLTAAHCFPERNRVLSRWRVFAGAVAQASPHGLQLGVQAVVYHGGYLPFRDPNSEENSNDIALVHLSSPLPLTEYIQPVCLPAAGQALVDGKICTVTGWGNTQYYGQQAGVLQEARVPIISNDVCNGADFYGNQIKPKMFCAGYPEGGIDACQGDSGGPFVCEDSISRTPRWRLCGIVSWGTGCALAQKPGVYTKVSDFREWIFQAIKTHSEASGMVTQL
Chain of ALU30-6 (chain, as listed by the source): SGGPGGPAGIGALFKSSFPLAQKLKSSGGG
Chain of ALU30-10 (chain, as listed by the source): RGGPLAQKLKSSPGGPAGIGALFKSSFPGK
Chain of ALU30-17 (chain, as listed by the source): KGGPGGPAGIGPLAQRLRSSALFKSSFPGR
Chain of ALU30-18 (chain, as listed by the source): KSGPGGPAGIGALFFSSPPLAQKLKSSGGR
Chain of ALU30-5 (chain, as listed by the source): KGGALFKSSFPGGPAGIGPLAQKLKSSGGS
Chain of ALU30-13 (chain, as listed by the source): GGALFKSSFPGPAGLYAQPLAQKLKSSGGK
Chain of ALU30-7 (chain, as listed by the source): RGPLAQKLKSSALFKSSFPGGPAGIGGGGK
Chain of ALU30-2 (chain, as listed by the source): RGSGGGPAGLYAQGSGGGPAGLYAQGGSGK
Chain of ALU30-4 (chain, as listed by the source): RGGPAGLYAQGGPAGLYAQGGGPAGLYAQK
Chain of ALU30-11 (chain, as listed by the source): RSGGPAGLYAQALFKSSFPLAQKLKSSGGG
Chain of ALU30-3 (chain, as listed by the source): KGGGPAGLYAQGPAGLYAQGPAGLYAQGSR
Chain of ALU30-16 (chain, as listed by the source): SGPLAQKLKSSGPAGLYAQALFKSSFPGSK

Substance	30-mer substrate degradation (MSP-MS) (ALU30-17)	30-mer substrate degradation (MSP-MS) (ALU30-19)	30-mer substrate degradation (MSP-MS) (ALU30-18)	30-mer substrate degradation (MSP-MS) (ALU30-10)	30-mer substrate degradation (MSP-MS) (ALU30-12)	30-mer substrate degradation (MSP-MS) (ALU30-9)	30-mer substrate degradation (MSP-MS) (ALU30-13)	30-mer substrate degradation (MSP-MS) (ALU30-14)	30-mer substrate degradation (MSP-MS) (ALU30-5)	30-mer substrate degradation (MSP-MS) (ALU30-8)	30-mer substrate degradation (MSP-MS) (ALU30-15)	30-mer substrate degradation (MSP-MS) (ALU30-6)	30-mer substrate degradation (MSP-MS) (ALU30-7)	30-mer substrate degradation (MSP-MS) (ALU30-1)	also measured
Hepsin, recombinant human	The ADAM17_1 motif was less efficiently cleaved than ADAM17_2	Alu30-19 was cleaved at all three motifs within the first 15 min of the reaction	the alternate CTSL1_2 motif was also cleaved at a much slower rate than CTSL1_1	–	–	–	–	–	–	–	–	–	–	–	apparent catalytic efficiency (ALU30-12): The authentic peptide Alu30-19, as well as the top cleaved peptides Alu30-8,-9, -12, and -14 all had apparent catalytic efficiencies on the same order of 10^5 M^-1s^-1.; apparent catalytic efficiency (ALU30-9): The authentic peptide Alu30-19, as well as the top cleaved peptides Alu30-8,-9, -12, and -14 all had apparent catalytic efficiencies on the same order of 10^5 M^-1s^-1.; apparent catalytic efficiency (ALU30-14): The authentic peptide Alu30-19, as well as the top cleaved peptides Alu30-8,-9, -12, and -14 all had apparent catalytic efficiencies on the same order of 10^5 M^-1s^-1.; apparent catalytic efficiency (ALU30-8): The authentic peptide Alu30-19, as well as the top cleaved peptides Alu30-8,-9, -12, and -14 all had apparent catalytic efficiencies on the same order of 10^5 M^-1s^-1.; cleavage efficiency of 30-mer library peptides (ALU30-15): it had slightly higher hepsin susceptibility; apparent catalytic efficiency (ALU30-19): The authentic peptide Alu30-19, as well as the top cleaved peptides Alu30-8,-9, -12, and -14 all had apparent catalytic efficiencies on the same order of 10^5 M^-1s^-1.
Factor Xa, recombinant human	all other peptides bearing a CTSL1_1 motif were cleaved by Factor Xa at either ALF|KSSFP (SEQ ID NO: 198) or ALFKS|SFP (SEQ ID NO: 198)	Peptide Alu30-19 with this motif was completely degraded before the 5 min time point.	The peptide with the motif CTSL1_2 was cleaved at the lowest efficiency.	all other peptides bearing a CTSL1_1 motif were cleaved by Factor Xa at either ALF|KSSFP (SEQ ID NO: 198) or ALFKS|SFP (SEQ ID NO: 198)	all other peptides bearing a CTSL1_1 motif were cleaved by Factor Xa at either ALF|KSSFP (SEQ ID NO: 198) or ALFKS|SFP (SEQ ID NO: 198)	all other peptides bearing a CTSL1_1 motif were cleaved by Factor Xa at either ALF|KSSFP (SEQ ID NO: 198) or ALFKS|SFP (SEQ ID NO: 198)	all other peptides bearing a CTSL1_1 motif were cleaved by Factor Xa at either ALF|KSSFP (SEQ ID NO: 198) or ALFKS|SFP (SEQ ID NO: 198)	all other peptides bearing a CTSL1_1 motif were cleaved by Factor Xa at either ALF|KSSFP (SEQ ID NO: 198) or ALFKS|SFP (SEQ ID NO: 198)	the only library peptide with significant cleavage was Alu30-5, cleaved at the CTSL1_1 motif ALFKS|SFP (SEQ ID NO: 198), upstream of a FAPα_1 motif	all other peptides bearing a CTSL1_1 motif were cleaved by Factor Xa at either ALF|KSSFP (SEQ ID NO: 198) or ALFKS|SFP (SEQ ID NO: 198)	all other peptides bearing a CTSL1_1 motif were cleaved by Factor Xa at either ALF|KSSFP (SEQ ID NO: 198) or ALFKS|SFP (SEQ ID NO: 198)	all other peptides bearing a CTSL1_1 motif were cleaved by Factor Xa at either ALF|KSSFP (SEQ ID NO: 198) or ALFKS|SFP (SEQ ID NO: 198)	all other peptides bearing a CTSL1_1 motif were cleaved by Factor Xa at either ALF|KSSFP (SEQ ID NO: 198) or ALFKS|SFP (SEQ ID NO: 198)	all other peptides bearing a CTSL1_1 motif were cleaved by Factor Xa at either ALF|KSSFP (SEQ ID NO: 198) or ALFKS|SFP (SEQ ID NO: 198)	30-mer substrate degradation (MSP-MS) (ALU30-16): all other peptides bearing a CTSL1_1 motif were cleaved by Factor Xa at either ALF|KSSFP (SEQ ID NO: 198) or ALFKS|SFP (SEQ ID NO: 198); 30-mer substrate degradation (MSP-MS) (ALU30-11): all other peptides bearing a CTSL1_1 motif were cleaved by Factor Xa at either ALF|KSSFP (SEQ ID NO: 198) or ALFKS|SFP (SEQ ID NO: 198)
MMP-9, recombinant human	–	–	–	the FAPα_1 motif was also cleaved within the peptides bearing FAPα_1 directly followed by the CTSL1_1 motif at PGGPAG|GALF (SEQ ID NO: 247); these were lower efficiency cleavages	The slowest peptides bear the MMP14_1 motif near the C-terminus of the 30-mer peptide.	The FAPα_1 motif was not cleaved by MMP9, however, when followed either by the ADAM17_2 motif or the spacing residues GG.	The next most efficient substrates contained the pair of motifs where MMP14_1 was followed directly by ADAM17_2.	The slowest peptides bear the MMP14_1 motif near the C-terminus of the 30-mer peptide.	The FAPα_1 motif was not cleaved by MMP9, however, when followed either by the ADAM17_2 motif or the spacing residues GG.	The FAPα_1 motif was not cleaved by MMP9, however, when followed either by the ADAM17_2 motif or the spacing residues GG.	The next most efficient substrates contained the pair of motifs where MMP14_1 was followed directly by ADAM17_2.	the FAPα_1 motif was also cleaved within the peptides bearing FAPα_1 directly followed by the CTSL1_1 motif at PGGPAG|GALF (SEQ ID NO: 247); these were lower efficiency cleavages	The FAPα_1 motif was not cleaved by MMP9, however, when followed either by the ADAM17_2 motif or the spacing residues GG.	The single or double MMP14_1 motif-bearing peptides were next in the order.	30-mer substrate degradation (MSP-MS) (ALU30-2): The single or double MMP14_1 motif-bearing peptides were next in the order.; product formation at individual bonds (MSP-MS) (ALU30-2): the specific cleavage of the Alu30-2 peptide was more efficient than the Alu30-1 peptide; 30-mer substrate degradation (MSP-MS) (ALU30-4): The most efficient MMP9 substrates were those that bore three-repeats of the MMP14_1 motif.; 30-mer substrate degradation (MSP-MS) (ALU30-3): The most efficient MMP9 substrates were those that bore three-repeats of the MMP14_1 motif.; product formation at individual bonds (MSP-MS) (ALU30-1): the specific cleavage of the Alu30-2 peptide was more efficient than the Alu30-1 peptide
